Reference: patent publication CN114028562A

Biological target: 天然TSLP
Assay: cell-based or functional assay

IC50, inhibition of natural TSLP-induced STAT5 phosphorylation in SW756-STAT5-Luciferase reporter cells: 1.45 ng/mL
Substance: Tezepelumab (antibody)
